We go through nine molecules from patent publication US20180155451A1 (published 2018).

The target in one experiment is T1, FcγRIIb (human, UniProt P31994 43-217).
T1 construct: extracellular domain; also called 2b
T1 sequence (looked up): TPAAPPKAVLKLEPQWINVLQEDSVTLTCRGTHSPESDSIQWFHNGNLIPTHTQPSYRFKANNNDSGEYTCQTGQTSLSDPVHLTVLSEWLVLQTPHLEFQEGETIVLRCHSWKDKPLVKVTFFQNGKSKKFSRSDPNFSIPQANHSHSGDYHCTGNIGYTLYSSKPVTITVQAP
Put plainly: SPR (Biacore), relative binding vs GpH7-A5/GpH7-B3/GpL16-k0. The procedure:
(§1) The heterodimerized antibodies He Abs in which one of the H chains was introduced with an alteration were assayed for their binding activities to each activating FcγR and inhibitory FcγR according to the method described in Example 4. […] The activating FcγRs in FIGS. 26, 27, 28, and 29 are FcγRIa, FcγRIIa (R), FcγRIIa (H), and FcγRIIIa, respectively.
(§2) Analysis of interaction between objective antibody and the FcγR was carried out using Biacore T100 (GE Healthcare). HBS-EP+ (GE Healthcare) was used as the running buffer, and the measurement temperature was set to 25° C. Chips produced by immobilizing the antigen peptide by the amine coupling method to a Series S Sencor Chip CM5 (GE Healthcare), or alternatively, chips produced by allowing preliminarily biotinylated antigen peptides to interact with and immobilize onto a Series S Sensor Chip SA (certified) (GE Healthcare) were used. Antibodies of interest were captured onto an antigen peptide-immobilized chip, and allowed to interact to each FcγR diluted with running buffer. To regenerate and repeatedly use the chip, the antibodies captured on the chip were washed off by reacting 10 mM glycine-HCl, pH 1.5.

The target of another experiment is T2, FcγRIIa H (human, UniProt P12318 34-217).
T2 construct: extracellular domain; also called FcγRIIa type H; 2aH
T2 sequence (looked up): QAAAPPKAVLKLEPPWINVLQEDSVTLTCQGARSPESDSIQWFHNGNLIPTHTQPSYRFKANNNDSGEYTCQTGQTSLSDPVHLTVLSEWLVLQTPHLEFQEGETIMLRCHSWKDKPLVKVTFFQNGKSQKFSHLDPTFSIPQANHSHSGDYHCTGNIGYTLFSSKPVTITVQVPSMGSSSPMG
Described as above. The procedure: as §1, §2

B1: GpH7-A5/GpH7-B3 variant K334_02A/GpL16-k0 (antibody, human IgG1, kappa)
heavy 1: not shown
heavy 2: not shown
light: DIVMTQSPLSLPVTPGEPASISCQASESLVHSNRNTYLHWYLQKPGQSPQLLIYKVSNRFSGVPDRFSGSGSGTDFTLKISRVEAEDVGVYYCSQNTHVPPTFGQGTKVEIERTVAAPSVFIFPPSDEQLKSGTASVVCLLNNFYPREAKVQWKVDNALQSGNSQESVTEQDSKDSTYSLSSTLTLSKADYEKHKVYACEVTHQGLSSPVTKSFNRGEC
notes: heterodimerized IgG1, mutation in one H chain only; also called He Ab
On to B1, for which the He/Con_2b with FcγRIIb was 108 % of control He Ab (=100). The He/Con_2aH with FcγRIIa H was 97 % of control He Ab (=100).

B2: GpH7-A5/GpH7-B3 variant K334_12R/GpL16-k0 (antibody, human IgG1, kappa)
heavy 1: not shown
heavy 2: not shown
light: DIVMTQSPLSLPVTPGEPASISCQASESLVHSNRNTYLHWYLQKPGQSPQLLIYKVSNRFSGVPDRFSGSGSGTDFTLKISRVEAEDVGVYYCSQNTHVPPTFGQGTKVEIERTVAAPSVFIFPPSDEQLKSGTASVVCLLNNFYPREAKVQWKVDNALQSGNSQESVTEQDSKDSTYSLSSTLTLSKADYEKHKVYACEVTHQGLSSPVTKSFNRGEC
notes: as for B1
As for B2, the He/Con_2b in the experiment with FcγRIIb is 111 % of control He Ab (=100). Also, in the experiment with FcγRIIa H, the He/Con_2aH was 99.7 % of control He Ab (=100).

B3: GpH7-A5/GpH7-B3 variant N325_03V/GpL16-k0 (antibody, human IgG1, kappa)
heavy 1: not shown
heavy 2: not shown
light: DIVMTQSPLSLPVTPGEPASISCQASESLVHSNRNTYLHWYLQKPGQSPQLLIYKVSNRFSGVPDRFSGSGSGTDFTLKISRVEAEDVGVYYCSQNTHVPPTFGQGTKVEIERTVAAPSVFIFPPSDEQLKSGTASVVCLLNNFYPREAKVQWKVDNALQSGNSQESVTEQDSKDSTYSLSSTLTLSKADYEKHKVYACEVTHQGLSSPVTKSFNRGEC
notes: as for B1
For B3, the He/Con_2b in the experiment with FcγRIIb was 111 % of control He Ab (=100). The He/Con_2aH with FcγRIIa H was 45.2 % of control He Ab (=100).

B4: GpH7-A5/GpH7-B3 variant K334_10E/GpL16-k0 (antibody, human IgG1, kappa)
heavy 1: not shown
heavy 2: not shown
light: DIVMTQSPLSLPVTPGEPASISCQASESLVHSNRNTYLHWYLQKPGQSPQLLIYKVSNRFSGVPDRFSGSGSGTDFTLKISRVEAEDVGVYYCSQNTHVPPTFGQGTKVEIERTVAAPSVFIFPPSDEQLKSGTASVVCLLNNFYPREAKVQWKVDNALQSGNSQESVTEQDSKDSTYSLSSTLTLSKADYEKHKVYACEVTHQGLSSPVTKSFNRGEC
notes: as for B1
Turning to B4, in the experiment with FcγRIIb, the He/Con_2b was 114 % of control He Ab (=100). For the same molecule, the He/Con_2aH with FcγRIIa H was 98.2 % of control He Ab (=100).

B5: GpH7-A5/GpH7-B3 variant L328_04F/GpL16-k0 (antibody, human IgG1, kappa)
heavy 1: not shown
heavy 2: not shown
light: DIVMTQSPLSLPVTPGEPASISCQASESLVHSNRNTYLHWYLQKPGQSPQLLIYKVSNRFSGVPDRFSGSGSGTDFTLKISRVEAEDVGVYYCSQNTHVPPTFGQGTKVEIERTVAAPSVFIFPPSDEQLKSGTASVVCLLNNFYPREAKVQWKVDNALQSGNSQESVTEQDSKDSTYSLSSTLTLSKADYEKHKVYACEVTHQGLSSPVTKSFNRGEC
notes: as for B1
In the case of B5, the He/Con_2b with FcγRIIb is 219 % of control He Ab (=100). For the same molecule, the He/Con_2aH with FcγRIIa H was 71.7 % of control He Ab (=100).

B6: GpH7-A5/GpH7-B3 variant K334_18N/GpL16-k0 (antibody, human IgG1, kappa)
heavy 1: not shown
heavy 2: not shown
light: DIVMTQSPLSLPVTPGEPASISCQASESLVHSNRNTYLHWYLQKPGQSPQLLIYKVSNRFSGVPDRFSGSGSGTDFTLKISRVEAEDVGVYYCSQNTHVPPTFGQGTKVEIERTVAAPSVFIFPPSDEQLKSGTASVVCLLNNFYPREAKVQWKVDNALQSGNSQESVTEQDSKDSTYSLSSTLTLSKADYEKHKVYACEVTHQGLSSPVTKSFNRGEC
notes: as for B1
As for B6, the He/Con_2b with FcγRIIb is 115 % of control He Ab (=100). Moreover, in the experiment with FcγRIIa H, the He/Con_2aH is 99.7 % of control He Ab (=100).

B7: GpH7-A5/GpH7-B3 variant L328_19Q/GpL16-k0 (antibody, human IgG1, kappa)
heavy 1: not shown
heavy 2: not shown
light: DIVMTQSPLSLPVTPGEPASISCQASESLVHSNRNTYLHWYLQKPGQSPQLLIYKVSNRFSGVPDRFSGSGSGTDFTLKISRVEAEDVGVYYCSQNTHVPPTFGQGTKVEIERTVAAPSVFIFPPSDEQLKSGTASVVCLLNNFYPREAKVQWKVDNALQSGNSQESVTEQDSKDSTYSLSSTLTLSKADYEKHKVYACEVTHQGLSSPVTKSFNRGEC
notes: as for B1
Turning to B7, the He/Con_2b with FcγRIIb is 105 % of control He Ab (=100). For the same molecule, the He/Con_2aH with FcγRIIa H was 86.8 % of control He Ab (=100).

B8: GpH7-A5/GpH7-B3 variant L328_07I/GpL16-k0 (antibody, human IgG1, kappa)
heavy 1: not shown
heavy 2: not shown
light: DIVMTQSPLSLPVTPGEPASISCQASESLVHSNRNTYLHWYLQKPGQSPQLLIYKVSNRFSGVPDRFSGSGSGTDFTLKISRVEAEDVGVYYCSQNTHVPPTFGQGTKVEIERTVAAPSVFIFPPSDEQLKSGTASVVCLLNNFYPREAKVQWKVDNALQSGNSQESVTEQDSKDSTYSLSSTLTLSKADYEKHKVYACEVTHQGLSSPVTKSFNRGEC
notes: as for B1
Take B8: the He/Con_2b with FcγRIIb was 160 % of control He Ab (=100). Also, in the experiment with FcγRIIa H, the He/Con_2aH was 93.9 % of control He Ab (=100).

B9: GpH7-A5/GpH7-B3 variant L328_09D/GpL16-k0 (antibody, human IgG1, kappa)
heavy 1: not shown
heavy 2: not shown
light: DIVMTQSPLSLPVTPGEPASISCQASESLVHSNRNTYLHWYLQKPGQSPQLLIYKVSNRFSGVPDRFSGSGSGTDFTLKISRVEAEDVGVYYCSQNTHVPPTFGQGTKVEIERTVAAPSVFIFPPSDEQLKSGTASVVCLLNNFYPREAKVQWKVDNALQSGNSQESVTEQDSKDSTYSLSSTLTLSKADYEKHKVYACEVTHQGLSSPVTKSFNRGEC
notes: as for B1
Turning to B9, the He/Con_2b with FcγRIIb is 199 % of control He Ab (=100). The He/Con_2aH with FcγRIIa H was 58.5 % of control He Ab (=100).
